The nature of this series: protein stability index of a GFP-peptide fusion (GPS, HEK-293T) (PSI 1-6); higher = more stable. To be noted: c terminus: a fixed tail appended.

± gives the standard deviation.
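Also: 24-mer peptide tiles fused after GFP, lentivirally expressed, FACS-sorted into six equal bins by GFP/DsRed ratio, decoded by Illumina sequencing, PSI is the read-weighted mean bin number.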

For FTQSGPIVSRATGRCLEVEMSKDA [GALNT9], the protein stability index is, setting by setting: (treatment: DMSO) 2.71 ± 0.35; (treatment: MLN4924 1 uM, 8 h) 3.34 ± 0.54.

Consider FYQHLLLYIQSHYQLELQCCIDWT [SMG5], for which the protein stability index came out at 3.17 ± 0.36 (treatment: DMSO) and 3.02 ± 0.38 (treatment: MLN4924 1 uM, 8 h).

Take GAFGIVHLCLRKADQKLVIIKQIP [NEK8]: the protein stability index by setting is: (treatment: DMSO) 2.55 ± 0.48; (treatment: MLN4924 1 uM, 8 h) 2.3 ± 0.33.

In the case of GAFPPRGPRPVQSVVPEMEESGAQ [CDK4], the protein stability index (treatment: DMSO) is 5.22 ± 0.32 and the protein stability index (treatment: MLN4924 1 uM, 8 h) amounted to 5.23 ± 0.18.

For the sequence GAHEQVDFKDFYPAIADLFAESLQ [P3H4], the protein stability index by setting is: (treatment: DMSO) 2.84 ± 0.51; (treatment: MLN4924 1 uM, 8 h) 3.08 ± 0.53.

On to GAKDHASIQMNVAEVSWEPGRREG [RPS21], for which the protein stability index was 4.14 ± 0.49 (treatment: DMSO) and 4.41 ± 0.41 (treatment: MLN4924 1 uM, 8 h).

Regarding GATVRSFSINSRLASSLGNLNAAT [CDC14A], the protein stability index was 2.98 ± 0.1 (treatment: DMSO) and 2.92 ± 0.21 (treatment: MLN4924 1 uM, 8 h).

In the case of GCGWRCPEHGDRVAELFCRRCRRC [TRIM14], the protein stability index reads like this: (treatment: DMSO) 3.69 ± 0.27; (treatment: MLN4924 1 uM, 8 h) 4.12 ± 0.18.

GCLLPDGSRMMAVAALVVNFSQPV [NLN] displayed a protein stability index (treatment: DMSO) of 3.04 ± 0.46 and a protein stability index (treatment: MLN4924 1 uM, 8 h) of 2.75 ± 0.81.

GDAHFDEDERWTNNFREYNLHRVA [MMP1] yielded a protein stability index (treatment: DMSO) of 3.84 ± 0.18 and a protein stability index (treatment: MLN4924 1 uM, 8 h) of 4.11 ± 0.33.

In the case of GDDGIVVVWNAQTGEKLLELNGHT [WDR41], the protein stability index is, setting by setting: (treatment: DMSO) 3.39 ± 0.11; (treatment: MLN4924 1 uM, 8 h) 3.3 ± 0.35.

As to GDFEEAFDHLQNRLIATKNPEEIR [TENT5C], the protein stability index reads like this: (treatment: DMSO) 5.16 ± 0.17; (treatment: MLN4924 1 uM, 8 h) 5.19 ± 0.21.

As to GDTVVQGDLQETTVVTGLGPDTQD [PBXIP1], the protein stability index is, setting by setting: (treatment: DMSO) 5.56 ± 0.17; (treatment: MLN4924 1 uM, 8 h) 5.63 ± 0.23.

GEAMLANFKPRGYSECIVTVGGEE [GAN] yielded a protein stability index (treatment: DMSO) of 4.38 ± 0.42 and a protein stability index (treatment: MLN4924 1 uM, 8 h) of 4.18 ± 0.41.

On to GEARFLPKDLDPSLCTHLIYAFAG [CHIT1], for which the protein stability index stood at 2.36 ± 0.27 (treatment: DMSO) and 2.44 ± 0.49 (treatment: MLN4924 1 uM, 8 h).

On to GEGLNVIQQTTRYFSTPQTMDLFL [NANOGP8], for which the protein stability index reads like this: (treatment: DMSO) 2.09 ± 0.34; (treatment: MLN4924 1 uM, 8 h) 2.32 ± 0.057.

Regarding GEVVKIPSRVHGSLEPFRPQQAPQ [PWWP2B], the protein stability index runs as follows: (treatment: DMSO) 4.22 ± 0.21; (treatment: MLN4924 1 uM, 8 h) 4.16 ± 0.23.

As for GFEYDGKINAWDLYYYMTQTEELK [NLN], the protein stability index is, setting by setting: (treatment: DMSO) 2.81 ± 0.035; (treatment: MLN4924 1 uM, 8 h) 2.49 ± 0.39.

Turning to GFIRHTVNKITFSEQCYYIFGDLC [DVL3], the protein stability index by setting is: (treatment: DMSO) 3.11 ± 0.86; (treatment: MLN4924 1 uM, 8 h) 2.64 ± 0.16.

GGLMARPEYREWNPELIKPKKLLN [FAM107A]: the protein stability index was determined as 3.68 ± 0.36 (treatment: DMSO) and 4.495 ± 0.034 (treatment: MLN4924 1 uM, 8 h).

Consider GGSAVCASRVKLQHLPAQEQWDRL [PLEKHN1], for which the protein stability index runs as follows: (treatment: DMSO) 3.08 ± 0.43; (treatment: MLN4924 1 uM, 8 h) 3.06 ± 0.29.

Consider GGYTPDLKMSYSRGLIPVKRGPSS [RBMY1A1], for which the protein stability index by setting is: (treatment: DMSO) 3.9 ± 0.14; (treatment: MLN4924 1 uM, 8 h) 3.8 ± 0.28.

Consider GHAAPGTDAGKAFCMFYAVLGIPL [KCNK9], for which the protein stability index reads like this: (treatment: DMSO) 2.81 ± 0.19; (treatment: MLN4924 1 uM, 8 h) 2.84 ± 0.39.

Take GIETLESVPIIGGFWETIFGNRIK [PHTF1]: the protein stability index runs as follows: (treatment: DMSO) 2.67 ± 0.41; (treatment: MLN4924 1 uM, 8 h) 2.81 ± 0.18.

Turning to GKEPLDPDPSHSPSDKVGRADAHL [TOR1AIP2], the protein stability index runs as follows: (treatment: DMSO) 5.07 ± 0.17; (treatment: MLN4924 1 uM, 8 h) 5.32 ± 0.057.

GKEQGQNLARQWNNCAFLESSAKS [RAP1B] yielded a protein stability index (treatment: DMSO) of 4.1 ± 0.17 and a protein stability index (treatment: MLN4924 1 uM, 8 h) of 4.13 ± 0.14.

In the case of GKGSIKELFPTGKQLEPLVAPLAD [VPS39], the protein stability index reads like this: (treatment: DMSO) 4.08 ± 0.26; (treatment: MLN4924 1 uM, 8 h) 4.08 ± 0.11.

GKQAPRKKAQGKTQQNRKLTDFYP [KMT5A] gave a protein stability index (treatment: DMSO) of 3.64 ± 0.42 and a protein stability index (treatment: MLN4924 1 uM, 8 h) of 4.21 ± 0.41.

As to GLGASTAEISARTMQSMFAKNFHV [PTPRD], the protein stability index came to 2.38 ± 0.26 (treatment: DMSO) and 2.56 ± 0.35 (treatment: MLN4924 1 uM, 8 h).

The values are drawn from the supplement of paper PMC10567573.
